For experiment [1], the system named is M2 macrophages in which ITGB2 expression was suppressed by Crispr/cas9. Description: CCK-8 cell viability in M2 macrophages with ITGB2 expression suppressed by Crispr/cas9. The note with it: Melittin-dKLA 1 μM, ITGB2 knocked down M2 macrophages. The format is cell-based, human. On the procedure:
As a cell model used to confirm whether apoptosis was induced through ITGB2 in M2 macrophages, a cell model in which the expression of ITGB2 was suppressed in M2 macrophages was fabricated using Crispr/cas9. Specifically, cells differentiated into M2 macrophages were cultured in an Opti-MEM medium. The Crispr/cas9 was mixed with Cas9 protein V2 (Thermo Fisher scientific) and gRNA (Genscript; ITGB2; Table 7) of a CRISPRMAX™ Reagent kit (Thermo Fisher scientific) and a Cas9 Plus™ Reagent (Thermo Fisher scientific), and a CRISPRMAX™ Reagent was diluted in the Opti-MEM medium, mixed together, and reacted for 5 to 10 minutes, and then added to cells differentiated into M2 macrophages and cultured at 37° C. for 2 to 3 days. Thereafter, the mRNA expression level of ITGB2 was confirmed.
To confirm whether Melittin-dKLA bound to ITGB2 to induce apoptosis in M2 macrophages, Melittin-dKLA (1 μM) was treated for 24 hours to M2 macrophages in which ITGB2 expression was suppressed by Crispr/cas9 fabricated in Example 7-1 above, and cell viability was analyzed using a CCK-8 assay. Specifically, Melittin-dKLA (1 μM) reacted with ITGB2 knockdown macrophages fabricated in Example 7-1 above for 1 hour. After the reaction, the medium was replaced and cultured at 37° C. for 24 hours. […] Absorbance was measured at 450 nm using a microplate reader (Molecular Devices). […]

In experiment [2] the test system is M2 macrophages. Nature of the experiment: CCK-8 cell viability in M2 macrophages. Type of experiment: cell-based, human. The note with it: Melittin-dKLA 1 μM, control M2 macrophages. As for the experimental part: To confirm whether Melittin-dKLA bound to ITGB2 to induce apoptosis in M2 macrophages, Melittin-dKLA (1 μM) was treated for 24 hours to M2 macrophages in which ITGB2 expression was suppressed by Crispr/cas9 fabricated in Example 7-1 above, and cell viability was analyzed using a CCK-8 assay. Specifically, Melittin-dKLA (1 μM) reacted with ITGB2 knockdown macrophages fabricated in Example 7-1 above for 1 hour. After the reaction, the medium was replaced and cultured at 37° C. for 24 hours. To determine cell viability, a CCK-8 reagent (Enzo Life Sciences) was added in 1/10 of the medium and reacted at 37° C. for 3 hours. Absorbance was measured at 450 nm using a microplate reader (Molecular Devices).
To confirm whether TB511 (TAMpep826-dKLA) induced apoptosis through ITGB2 in M2 macrophages, TB511 reacted with M2 macrophages in which ITGB2 expression was suppressed by Crispr/cas9 fabricated in Example 7-1.

The test system of experiment [3] is M2 macrophages. Description: Flow cytometry of FITC-conjugated melittin on THP-1-derived M0, M1 and M2 macrophages. Type of experiment: cell-based, human. The note with it: 50 nM FITC-conjugated melittin, 1 hour; M2 macrophages compared to the other macrophage types. As for the experimental part: To confirm whether the melittin fabricated in Example 1 specifically bound to M2 tumor-associated macrophages (M2 TAMs), a human monocyte cell line THP-1 was differentiated into M0, M1, and M2 macrophages, and treated with FITC-conjugated melittin, and then confirmed by flow cytometry. Specifically, THP-1 cells were treated with 100 nM phorbol 12-myristate 13-acetate (PMA) at 37° C. for 24 hours (M0 macrophages), and the differentiated M0 macrophages were incubated with 100 nM LPS and 20 ng/ml IFN-γ at 37° C. for 72 hours to be differentiated into M1 macrophages (M1), and incubated with 20 ng/ml IL-4 and IL-13 at 37° C. for 72 hours to be differentiated into M2 macrophages (M2). The differentiated cells were treated with 50 nM FITC-conjugated melittin for 1 hour, detected with BD FACS CantoII instruments (BD biosciences, San Jose, CA, USA), and analyzed with FlowJo software (BD biosciences).
(In general: A flow cytometer gives signals particle by particle.)

In experiment [4] the target is ITGB2 protein immobilised on the SPR sensor chip (UniProt P05107).

Data on three molecules can be found in patent publication US20250228951A1, “NOVEL-PEPTIDE-BASED ANTICANCER IMMUNOTHERAPEUTIC AGENT” (TWINPIG BIOLAB INC., priority 2022, published 2025).

pKd: −log10 of the molar value.

Sequence of ITGB2 protein immobilised on the SPR sensor chip (P05107 23-700 limits assumed): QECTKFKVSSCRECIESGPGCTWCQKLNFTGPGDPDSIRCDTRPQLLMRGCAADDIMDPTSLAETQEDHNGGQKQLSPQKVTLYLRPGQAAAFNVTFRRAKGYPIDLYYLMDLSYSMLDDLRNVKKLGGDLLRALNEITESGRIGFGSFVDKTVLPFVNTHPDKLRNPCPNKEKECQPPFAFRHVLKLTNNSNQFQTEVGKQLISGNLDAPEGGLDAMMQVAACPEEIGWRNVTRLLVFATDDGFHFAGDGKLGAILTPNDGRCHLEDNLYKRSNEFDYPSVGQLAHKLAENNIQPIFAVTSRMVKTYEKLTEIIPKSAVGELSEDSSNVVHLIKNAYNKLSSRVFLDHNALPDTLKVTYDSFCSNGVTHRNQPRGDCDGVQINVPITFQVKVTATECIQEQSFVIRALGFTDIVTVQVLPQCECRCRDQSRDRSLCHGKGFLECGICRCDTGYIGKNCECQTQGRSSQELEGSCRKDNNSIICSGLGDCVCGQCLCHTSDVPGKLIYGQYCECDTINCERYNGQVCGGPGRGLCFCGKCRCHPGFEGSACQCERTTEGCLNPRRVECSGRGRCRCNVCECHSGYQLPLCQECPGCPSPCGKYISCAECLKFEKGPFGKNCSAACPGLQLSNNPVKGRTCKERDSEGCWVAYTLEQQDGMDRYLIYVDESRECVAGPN

For the molecule “GIGAVLKVLTTGLPALISWIKRKRQQ-GGGGS-d[KLAKLAKKLAKLAK] (SEQ ID NO: 5), peptide with linker and drug dKLA attached to melittin [Melittin-dKLA]”, the results for the cell viability result (in experiment [1]; in the experiment on M2 macrophages [2]) were “the decrease in cell viability by Melittin-dKLA was suppressed” and “significantly reduced”, respectively.

Take `CC[C@H](C)[C@H](NC(=O)CN)C(=O)NCC(=O)N[C@@H](C)C(=O)N[C@H](C(=O)N[C@@H](CC(C)C)C(=O)N[C@@H](CCCCN)C(=O)N[C@H](C(=O)N[C@@H](CC(C)C)C(=O)N[C@H](C(=O)N[C@H](C(=O)NCC(=O)N[C@@H](CC(C)C)C(=O)N1CCC[C@H]1C(=O)N[C@@H](C)C(=O)N[C@@H](CC(C)C)C(=O)N[C@H](C(=O)N[C@@H](CO)C(=O)N[C@@H](Cc1c[nH]c2ccccc12)C(=O)N[C@H](C(=O)N[C@@H](CCCCN)C(=O)N[C@@H](CCCNC(=N)N)C(=O)N[C@@H](CCCCN)C(=O)N[C@@H](CCCNC(=N)N)C(=O)N[C@@H](CCC(N)=O)C(=O)N[C@@H](CCC(N)=O)C(N)=O)[C@@H](C)CC)[C@@H](C)CC)[C@@H](C)O)[C@@H](C)O)C(C)C)C(C)C` [Melittin]: the FITC-positive cells result in the experiment on M2 macrophages [3] is reported as “significantly increased”.

As for Melittin-dKLA (peptide), in experiment [4], the Ka is 1.27e+07 M⁻¹, the pKd was 7.10, the koff was 0.00381 s⁻¹ and the kon came out at 48500 M⁻¹ s⁻¹.

By pKd is commonly meant the negative decadic logarithm of the Kd, by convention in mol/L. A higher pKd goes with a low Kd. As usually defined, the koff is the rate constant with which the complex falls apart. Low readings indicate slow dissociation, high ones fast dissociation. In general, kon refers to a measure of how fast the partners come together.
